Assay results from the RNAGym collection of RNA variant scans (doi:10.7554/elife.80360).

B1: Hairpin Ribozyme (parent)
chain: GUCCUCUUUCACGUGCGCGUGAAAGAGAGAAGUGAACCAGAGAAACACACGUUGUGGUAUAUUACCUGGUA

Variants of: B1
Assay: self-cleavage, relative activity (ratio to wild type); higher = more cleavage; co-transcriptional
In the case of U9G U58G, the self-cleavage is reported as 0.579. Variant U8C A35G has a self-cleavage of 0.385. Work on U8C C50U yielded a self-cleavage of 0.172. U9G G57A showed a self-cleavage of 0.132. For U9G C38U, the self-cleavage was 0.41. For U9G C38A, the self-cleavage was 0.243. U9G A11U showed a self-cleavage of 0.566. U9C C10U gave a self-cleavage of 0.527. Work on U9C C10A yielded a self-cleavage of 0.696. U9A A39U showed a self-cleavage of 0.335. C10A A64U showed a self-cleavage of 0.121. U8G U58C showed a self-cleavage of 0.725. In the case of C10A A43U, the self-cleavage is reported as 0.133. With U9A G13C the self-cleavage was 0.399. Variant U8G A30G has a self-cleavage of 0.119. U8G A30C showed a self-cleavage of 0.141. Work on U9A C38U yielded a self-cleavage of 0.388. For U9A A43G, the self-cleavage was 0.179. In the case of U9A A43C, the self-cleavage is reported as 0.142. With U9G A41U the self-cleavage was 1.15. For U9A U60G, the self-cleavage was 0.484. Work on U8C A39G yielded a self-cleavage of 0.201. Variant U8C A39U has a self-cleavage of 0.25. U8G C66A showed a self-cleavage of 0.169. For U8G C66G, the self-cleavage was 0.162. Work on U9G C16G yielded a self-cleavage of 0.431. C10A G17A gave a self-cleavage of 0.622. Variant U8G G69U has a self-cleavage of 0.29. U9C G27C gave a self-cleavage of 0.109. U9G G17U showed a self-cleavage of 0.847. In the case of U9G G17A, the self-cleavage is reported as 0.571. C10A C50G gave a self-cleavage of 0.352. For C10A C50A, the self-cleavage was 0.255. Work on U8G A61U yielded a self-cleavage of 0.184. Variant U8G A61C has a self-cleavage of 0.189. In the case of U9C U63A, the self-cleavage is reported as 0.131. For U9C G68U, the self-cleavage was 0.217. In the case of U9C U67G, the self-cleavage is reported as 0.283. In the case of U9C U67C, the self-cleavage is reported as 0.203. Work on U9G A45C yielded a self-cleavage of 0.0983. Work on U9G U63A yielded a self-cleavage of 0.102. Variant U8C G42U has a self-cleavage of 0.252. U8C C10U showed a self-cleavage of 0.564. In the case of C10A A61C, the self-cleavage is reported as 0.18. For C10A A61U, the self-cleavage was 0.194. For U8C C65G, the self-cleavage was 0.143. U9C A61U showed a self-cleavage of 0.0555. In the case of U9C A22C, the self-cleavage is reported as 0.799. U9C A22G showed a self-cleavage of 1.04. With U9C A41G the self-cleavage was 0.706. U9C G57C showed a self-cleavage of 0.0619. With U8G C37G the self-cleavage was 0.191. For U8G C37U, the self-cleavage was 0.487. With U8G G51U the self-cleavage was 0.886. With C10A A39U the self-cleavage was 0.262. In the case of C10A A39G, the self-cleavage is reported as 0.224. For U9G G54A, the self-cleavage was 0.418. Variant U9A C18U has a self-cleavage of 0.775. Work on U8G C12A yielded a self-cleavage of 0.395. U8G C12U gave a self-cleavage of 0.447. Work on U9G A24G yielded a self-cleavage of 0.672. With C10A G13U the self-cleavage was 0.425. Work on U9C G54A yielded a self-cleavage of 0.501. U9C G54C showed a self-cleavage of 0.413. For U9G G69C, the self-cleavage was 0.299. U9A A23U showed a self-cleavage of 0.472. With U8G G13U the self-cleavage was 0.438. Variant U9A A59C has a self-cleavage of 0.0956. Work on U9A A59G yielded a self-cleavage of 0.154. With U9C A26U the self-cleavage was 0.546. With U8G G27A the self-cleavage was 0.43. Work on U8G G27C yielded a self-cleavage of 0.139. For U9A U62G, the self-cleavage was 0.122. With U9A G25A the self-cleavage was 0.191. Work on U9A G25C yielded a self-cleavage of 0.232. In the case of U8G A39G, the self-cleavage is reported as 0.263. U8C C48A gave a self-cleavage of 0.136. U8C U20A showed a self-cleavage of 0.604. U8C U20G gave a self-cleavage of 0.439. C10A A71U gave a self-cleavage of 0.557. Variant U9A A47G has a self-cleavage of 0.0847. Work on U9A A47U yielded a self-cleavage of 0.135. C10A C38G gave a self-cleavage of 0.196. Variant C10A C38A has a self-cleavage of 0.171. U9C U14C gave a self-cleavage of 0.533. Variant U8C A36G has a self-cleavage of 0.928. Work on C10A A23C yielded a self-cleavage of 0.657. In the case of U9A A26C, the self-cleavage is reported as 0.364. In the case of U9A A26U, the self-cleavage is reported as 0.424. Work on U8C A43G yielded a self-cleavage of 0.16. U8C A43U gave a self-cleavage of 0.241. Work on U8C U14G yielded a self-cleavage of 0.501. Variant U9G G29U has a self-cleavage of 0.1. U9G G29C gave a self-cleavage of 0.129. Work on U9G G29A yielded a self-cleavage of 0.0566. For U8G C38G, the self-cleavage was 0.268. Variant U8G U70C has a self-cleavage of 0.675. U8G U70G gave a self-cleavage of 0.608. U9A G42U gave a self-cleavage of 0.253. With U8G G25C the self-cleavage was 0.0293. U9C A11U gave a self-cleavage of 0.411. U9G C65G showed a self-cleavage of 0.207. U9C G21A gave a self-cleavage of 0.5. Variant U9C G21C has a self-cleavage of 0.479. Variant U9C C12U has a self-cleavage of 0.665. U9C U60G showed a self-cleavage of 0.615. Variant U9C U33C has a self-cleavage of 0.104. Variant U9A G54C has a self-cleavage of 0.3. With U9A G51U the self-cleavage was 0.675. U9A C66U gave a self-cleavage of 0.266. Work on U9G U33A yielded a self-cleavage of 0.102. U9G U33C gave a self-cleavage of 0.176. U9A G68A showed a self-cleavage of 0.223. In the case of U8G A28U, the self-cleavage is reported as 0.514. Variant U8G A28C has a self-cleavage of 0.433. For U9A A71G, the self-cleavage was 0.707. U9G A28U showed a self-cleavage of 0.46. Variant U8G G29A has a self-cleavage of 0.154. Work on U8G G29U yielded a self-cleavage of 0.112. With U9G U14G the self-cleavage was 0.597. With U8G A45C the self-cleavage was 0.111. Variant U8C U58A has a self-cleavage of 0.552. With U8C U58C the self-cleavage was 0.911. C10A A47U gave a self-cleavage of 0.177. Variant U9A C65G has a self-cleavage of 0.203. Work on U9A C65U yielded a self-cleavage of 0.335. U8G G57A gave a self-cleavage of 0.102. Variant U8G G57C has a self-cleavage of 0.192. Variant U9A C37G has a self-cleavage of 0.189. Work on U9A C37U yielded a self-cleavage of 0.317. In the case of U9A C37A, the self-cleavage is reported as 0.193. With U8C G40A the self-cleavage was 0.274. For U8C C37G, the self-cleavage was 0.214. For U9G G25A, the self-cleavage was 0.153. In the case of C10A A35G, the self-cleavage is reported as 0.63. Variant C10A A35U has a self-cleavage of 0.56. U8C U33C showed a self-cleavage of 0.214. U8C U33G gave a self-cleavage of 0.36. With C10A A24U the self-cleavage was 0.584. C10A A24G gave a self-cleavage of 0.57. Work on U9A A35U yielded a self-cleavage of 0.578. Variant U9A A35G has a self-cleavage of 0.744. Variant U9C A30C has a self-cleavage of 0.0706. C10A A45G showed a self-cleavage of 0.138. U9G G42U gave a self-cleavage of 0.364. Variant U8G U14A has a self-cleavage of 0.554. In the case of U8G U14C, the self-cleavage is reported as 0.814. With U8G U14G the self-cleavage was 0.542. U8C A47C gave a self-cleavage of 0.131. C10A C48U showed a self-cleavage of 0.0572. For C10A C48A, the self-cleavage was 0.102. In the case of C10A C48G, the self-cleavage is reported as 0.157. U9C U62G gave a self-cleavage of 0.199. Variant U9C C50G has a self-cleavage of 0.258. In the case of U9C C50U, the self-cleavage is reported as 0.314. With U8C G27A the self-cleavage was 0.443. With U8C G27C the self-cleavage was 0.152. U9A U58A gave a self-cleavage of 0.344. With U9A U58G the self-cleavage was 0.494. In the case of U8G U63C, the self-cleavage is reported as 0.155. Work on U8G U63G yielded a self-cleavage of 0.172. U9A A45G gave a self-cleavage of 0.172. In the case of U8G C18G, the self-cleavage is reported as 0.518. U8C U70G gave a self-cleavage of 0.35. In the case of U9A A49U, the self-cleavage is reported as 0.179. U8C A59U showed a self-cleavage of 0.116. U8C G17A gave a self-cleavage of 0.632.
